# B1: [32P]-labeled 6xHis-tagged IκBα (His-IκBα), phosphorylated in vitro by p90rsk (natural protein, UniProt P25963 1-317, looked up)
# chain: MFQAAERPQEWAMEGPRDGLKKERLLDDRHDSGLDSMKDEEYEQMVKELQEIRLEPQEVPRGSEPWKQQLTEDGDSFLHLAIIHEEKALTMEVIRQVKGDLAFLNFQNNLQQTPLHLAVITNQPEIAEALLGAGCDPELRDFRGNTPLHLACEQGCLASVGVLTQSCTTPHLHSILKATNYNGHTCLHLASIHGYLGIVELLVSLGADVNAQEPCNGRTALHLAVDLQNPDLVSLLLKCGADVNRVTYQGYSPYQLTWGRPSTRIQQQLGQLTLENLQMLPESEDEESYDTESEFTEFTEDELPYDDCVFGGQRLTL
# modifications: 32P-phosphate put on in vitro by p90rsk; site not stated
# notes: IκBα, wild type; also called [^32P]-labeled IκBα; purified bacterially-produced wild-type IκBα; source: bacterially produced, purified; labeled in vitro with [γ-32P]ATP and Xenopus laevis p90rsk
# B2: 6xHis-tagged IκBα (His-IκBα), purified, bacterially produced (natural protein, UniProt P25963 1-317, looked up)
# chain: B1 chain
# notes: IκBα, wild type; also called purified IκBα protein; hexahistidine-tagged IκBα; source: bacterially produced, purified
# Target: T1, GST-p53, purified, bacterially produced (UniProt P04637 1-393)
# T1 construct: p53 tumor suppressor protein; also called p53-pGEX; purified p53; source: bacteria, from a pGEX construct, purified
# Assay: pull-down; purified GST-p53 (or GST-c-Jun) incubated with purified His-IκBα in IP buffer (25 mM Hepes pH 7.5, 75 mM KCl, 2.5 mM MgCl2, 0.1 mM EDTA, 0.15% NP-40, 1 mM DTT); glutathione Sepharose beads; autoradiography of 32P-IκBα or Western blot for IκBα
# Details: both partners purified
# T1 sequence (P04637 whole entry): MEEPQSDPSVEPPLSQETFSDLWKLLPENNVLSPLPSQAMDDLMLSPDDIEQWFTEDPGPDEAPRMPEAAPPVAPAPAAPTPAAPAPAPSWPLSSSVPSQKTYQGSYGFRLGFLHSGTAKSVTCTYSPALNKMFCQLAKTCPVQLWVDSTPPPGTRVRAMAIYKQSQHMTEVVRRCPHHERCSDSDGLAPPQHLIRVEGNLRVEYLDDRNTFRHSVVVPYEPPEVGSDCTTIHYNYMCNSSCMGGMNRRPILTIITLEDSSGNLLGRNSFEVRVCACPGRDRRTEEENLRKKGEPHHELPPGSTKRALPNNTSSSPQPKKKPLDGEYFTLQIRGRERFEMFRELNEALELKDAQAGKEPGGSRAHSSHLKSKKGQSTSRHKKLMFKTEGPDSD
row,Binder,binding result
1,B1,binds
2,B2,binds

# Source: paper PMC1184076, “Modulation of p53 activity by IκBα: Evidence suggesting a common phylogeny between NF-κB and p53 transcription factors” (BMC Immunology, 2005)
